Numbering of substitutions follows the chain as printed.
T1: cynoNectin4-mFc (cyno, UniProt A0A2K5WES1 32-349)
T1 construct: Immobilized on the SPR chip; also called cyanoNectin4; not shown: mFc (mouse Fc)
T1 sequence: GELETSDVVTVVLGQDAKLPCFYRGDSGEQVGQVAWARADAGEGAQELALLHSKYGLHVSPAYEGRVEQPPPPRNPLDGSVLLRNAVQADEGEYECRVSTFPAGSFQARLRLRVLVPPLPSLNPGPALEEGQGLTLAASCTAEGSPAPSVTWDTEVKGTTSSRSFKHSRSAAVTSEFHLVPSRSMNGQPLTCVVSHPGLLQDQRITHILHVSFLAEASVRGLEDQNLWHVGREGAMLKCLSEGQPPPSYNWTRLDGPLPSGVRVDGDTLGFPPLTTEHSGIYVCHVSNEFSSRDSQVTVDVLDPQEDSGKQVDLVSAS

T2: huNectin4-His (human, UniProt Q96NY8 32-349)
T2 construct: Immobilized on the SPR chip; also called humanNectin4; human Nectin4; not shown: His tag
T2 sequence (looked up): T1 sequence with A39V, V230I

T3: recombinant human Nectin4 antigen (human, UniProt Q96NY8 32-349)
T3 construct: construct not described
T3 sequence (looked up): T1 sequence with A39V, V230I

B1: BAP-143-wildtype (antibody, V domains shown)
VH: EVQLVESGGGLVQPGGSLRLSCAASGFTFSSYNMNWVRQAPGKGLEWVSYISSSSSTIYYADSVKGRFTISRDNAKNSLSLQMNSLRDEDTAVYYCARAYYYGMDVWGQGTTVTVSS
VL: DIQMTQSPSSVSASVGDRVTITCRASQGISGWLAWYQQKPGKAPKFLIYAASTLQSGVPSRFSGSGSGTDFTLTISSLQPEDFATYYCQQANSFPPTFGGGTKVEIK
notes: 150 kDa used in SPR; also called BAP143-00-00; benchmark (BM)
B2: BAP-143-00-03 (antibody, V domains shown)
VH: B1 VH
VL: B1 VL with P96D
notes: Used as a conjugate with a linker payload (CAB ADC)
B3: BAP-143-00-05 (antibody, V domains shown)
VH: B1 VH with R98E
VL: B1 VL
notes: as for B2
B4: BAP-143-00-06 (antibody, V domains shown)
VH: B1 VH with M104D
VL: B1 VL
notes: as for B2
B5: BAP-143-00-02 (antibody, V domains shown)
VH: B1 VH
VL: B1 VL with F94E
notes: as for B2
B6: BAP-143-00-01 (antibody, V domains shown)
VH: B1 VH
VL: B1 VL with L33E
notes: as for B2
B7: BAP-143-00-04 (antibody, V domains shown)
VH: B1 VH with M34D
VL: B1 VL
notes: as for B2

Each binder was assayed against T1, cynoNectin4-mFc (assay: SPR, cynoNectin4-mFc immobilized, pH 6.5).
Method: (§1) Binding kinetics of anti-Nectin4 antibodies were measured by surface plasmon resonance using a SPR2/4 instrument (Sierra Sensors, Hamburg, Germany) and flat amine sensor chips. The SPR sensor contained four flow cells (FC1-FC4), each of which was addressed individually or in groups. huNectin4-His was immobilized in FC2, and cynoNectin4-mFc in FC4. No protein was immobilized in FC1 and FC3 which were used as control surfaces for FC2 and FC4, respectively.
(§2) All injections were done at a flow rate of 25 μL/min at 25° C. The sensor surface was activated with 1-ethyl-3-(3-dimethylaminopropyl)-carbodiimide (EDC) and N-hydroxysuccinimide (NHS) (200 mM/50 mM) for 480 seconds. HuNectin4-His (2 μg/mL in 10 mM NaAc, pH4.5) was injected for 480s and the surface was inactivated by injecting 1M ethanolamine-HCl for 480s. CynoNectin4 was immobilized using the same conditions as described for huNectin4-His, except that the cynoNectin4 was diluted into 10 mM NaAc buffer having pH 5.0. The control surface was activated and deactivated using the same conditions, but without injecting protein. PBST buffer (PBS pH 7.4 with 0.05% TWEEN20™) was used as running buffer for the surface preparation. The running solution was switched to PBST with 30 mM sodium bicarbonate with the pH adjusted as indicated in the figures before the analyte injections. The instrument was equilibrated with the running solution for one hour before the first analyte injection.
(§3) The off-rate was measured for 360s. The chip surface was regenerated after each cycle of interaction analysis by injecting 6 μL of 10 mM glycine (pH 2.0). Flow cells 1 and 3 without immobilized protein were used as control surfaces for reference subtraction.

Kd | koff | kon | Binder
0.52 nM |  |  | B1
1.86 nM | 0.00124 s⁻¹ | 668000 M⁻¹ s⁻¹ | B2
3.96 nM | 0.00237 s⁻¹ | 599000 M⁻¹ s⁻¹ | B3
0.398 nM | 0.000769 s⁻¹ | 1.93e+06 M⁻¹ s⁻¹ | B4
4.71 nM | 0.00179 s⁻¹ | 380000 M⁻¹ s⁻¹ | B5
2.94 nM | 0.00134 s⁻¹ | 457000 M⁻¹ s⁻¹ | B6
1.12 nM | 0.0018 s⁻¹ | 1.6e+06 M⁻¹ s⁻¹ | B7

What follows are binders tested against T2, huNectin4-His (assay: SPR, huNectin4-His immobilized, pH 7.4).
Method: as §1, §2, §3

Kd | koff | kon | Binder
0.943 nM |  |  | B1
2.45 nM | 0.0032 s⁻¹ | 1.31e+06 M⁻¹ s⁻¹ | B2
5.09 nM | 0.0062 s⁻¹ | 1.22e+06 M⁻¹ s⁻¹ | B3
0.406 nM | 0.00143 s⁻¹ | 3.52e+06 M⁻¹ s⁻¹ | B4
3.89 nM | 0.00267 s⁻¹ | 686000 M⁻¹ s⁻¹ | B6
1.42 nM | 0.00525 s⁻¹ | 3.71e+06 M⁻¹ s⁻¹ | B7

The binders below were run against T3, recombinant human Nectin4 antigen (assay: ELISA, coated antigen, PSB pH 6.0).
Method: 1) Coat ELISA plates with 100 μL of 1 μg/mL recombinant human Nectin4 antigen or cynoNectin4 antigen in carbonate-bicarbonate coating buffer. […] 2) Cover plates with sealing film and incubate overnight at 4° C. [0444] 3) Decant plates and tap out residual liquid on a stack of paper towels. [0445] 4) Wash wells twice by dispensing 200 μL of pH 6.0 or pH 7.4 ELISA incubation buffer to the wells and completely aspirate the contents. [0446] 5) Add 200 μL of pH 6.0 or pH 7.4 ELISA incubation buffer to the wells. Cover with sealing film and place the plate onto a plate shaker set to 50 rpm for 60 minutes at room temperature. [0447] 6) Decant plates and tap out residual liquid on a stack of paper towels. […] 7) Serially dilute test articles in 3-fold dilutions starting at 3000 ng/mL in pH 6.0 or pH 7.4 ELISA incubation buffer. […] 8) Add 100 μL/well of diluted test articles to the plates [0450] 9) Cover with sealing film and place the plates onto a plate shaker set to 50 rpm for 60 minutes at room temperature. [0451] 10) Decant plates and tap out residual liquid on a stack of paper towels. [0452] 11) Wash wells three times by dispensing 200 μL of pH 6.0 or pH 7.4 ELISA wash buffer to the wells and completely aspirate the contents. […] 12) Dilute the HRP secondary antibody at 1:2500 in pH 6.0 or pH 7.4 ELISA incubation buffer. [0454] […] 14) Cover with sealing film and place the plates onto a plate shaker set to 50 rpm for 60 minutes at room temperature. […] 15) Decant plates and tap out residual liquid on a stack of paper towels. […] 16) Wash wells three times by dispensing 200 μL of pH 6.0 or pH 7.4 ELISA wash buffer to the wells and completely aspirate the contents. [0458] 17) Dispense 50 μL per well of the TMB substrate solution into all wells of the plates.

EC50 | Binder
0.0316 µg/mL | B1
0.0344 µg/mL | B2
0.0441 µg/mL | B3
0.0247 µg/mL | B4
0.0876 µg/mL | B5
0.0313 µg/mL | B6
0.0258 µg/mL | B7

These binders were tested against T1, cynoNectin4-mFc (assay: SPR, cynoNectin4-mFc immobilized, pH 6.0).
Method: as §1, §2, §3

Kd | koff | kon | Binder
1.06 nM |  |  | B1
2.33 nM | 0.00235 s⁻¹ | 1.01e+06 M⁻¹ s⁻¹ | B2
7.02 nM | 0.00449 s⁻¹ | 639000 M⁻¹ s⁻¹ | B3
0.56 nM | 0.00141 s⁻¹ | 2.52e+06 M⁻¹ s⁻¹ | B4
5.46 nM | 0.00242 s⁻¹ | 443000 M⁻¹ s⁻¹ | B5
3.04 nM | 0.00248 s⁻¹ | 817000 M⁻¹ s⁻¹ | B6
2.08 nM | 0.00377 s⁻¹ | 1.82e+06 M⁻¹ s⁻¹ | B7

The binders below were run against T1, cynoNectin4-mFc (assay: SPR, cynoNectin4-mFc immobilized, pH 7.4).
Method: as §1, §2, §3

Kd | koff | kon | Binder
0.333 nM |  |  | B1
3.85 nM | 0.000826 s⁻¹ | 215000 M⁻¹ s⁻¹ | B2
4.89 nM | 0.00157 s⁻¹ | 322000 M⁻¹ s⁻¹ | B3
0.4 nM | 0.000335 s⁻¹ | 839000 M⁻¹ s⁻¹ | B4
5.86 nM | 0.00195 s⁻¹ | 334000 M⁻¹ s⁻¹ | B5
11.1 nM | 0.00162 s⁻¹ | 146000 M⁻¹ s⁻¹ | B6
1.33 nM | 0.00112 s⁻¹ | 840000 M⁻¹ s⁻¹ | B7

From patent US20230235054A1 (BIOATLA, published 2023)
